Assays:
[1] = molecular target: T1, Clostridium difficile toxin B (TcdB) (Clostridium difficile, UniProt P18177 2-2366); assay: cell-based or functional assay
[2] = molecular target: T1, Clostridium difficile toxin B (TcdB); assay: method not stated
[3] = molecular target: T2, recombinant HuNoV GI.1 P domain (Human Norovirus (HuNoV) GI.1); assay: ELISA on recombinant HuNoV GI.1 P domain, Spirulina-expressed Ni-NTA purified protein after freeze-drying
T2 construct: domain: Protrusion (P) domain

GI.1 VLPs = molecular target: T3, GI.1 VLPs (human norovirus genotype GI.1); assay: blocking of GI.1 VLP binding to pig gastric mucin (HBGA)
T3 construct: virus-like particle

[4] = molecular target: T2, recombinant HuNoV GI.1 P domain; assay: ELISA on recombinant GI.1 P domain
[5] = molecular target: T2, recombinant HuNoV GI.1 P domain; assay: ELISA on recombinant HuNoV GI.1 P domain, Spirulina-expressed Ni-NTA purified protein stored at 4 C
[6] = molecular target: T4, recombinant HuNoV GII.10 P domain (Human Norovirus (HuNoV) GII.10); assay: ELISA on recombinant HuNoV GII.10 P domain, Spirulina-expressed Ni-NTA purified protein stored at 4 C
T4 construct: domain: Protrusion (P) domain

[7] = molecular target: T4, recombinant HuNoV GII.10 P domain; assay: ELISA on recombinant HuNoV GII.10 P domain, Spirulina-expressed Ni-NTA purified protein after freeze-drying
[8] = molecular target: T5, recombinant HuNoV GII.2 P domain (Human Norovirus (HuNoV) GII.2); assay: BLI, biotin tagged GII.2 P domain at 100 nM as antigen
T5 construct: domain: Protrusion (P) domain

[9] = molecular target: T1, Clostridium difficile toxin B (TcdB); assay: assay not given; unlabelled list of VHH names and values at the right of the sheet, the same values stand under KD in Table 6 of the text, which prints the unit of 5D as mM

B1: 5D+E3+7F (other)
VHH 5D: QVQLVESGGGLVQPGGSLRLSCEASGFTLDYYGIGWFRQPPGKEREAVSYISASARTILYADSVKGRFTISRDNAKNAVYLQMNSLKREDTAVYYCARRRFSASSVNRWLADDYDVWGRGTQVAVSSEPKTPKPQ
VHH E3: QVQLVESGGGLVQTGGSLRLSCASSGSIAGFETVTWSRQAPGKSLQWVASMTKTNNEIYSDSVKGRFIISRDNAKNTVYLQMNSLKPEDTGVYFCKGPELRGQGIQVTVSSEPKTPKPQ
VHH 7F: DVQLQASGGGLVQAGGSLRLSCVASARTFSSYAMGWFRQAPGKEREFVAAISWSGASTDYADSVKGRFTISRDNAKKTVYLQMNTLKPEDTAVYYCAAHHITPTGSYYYSEPLPVDMVYDYWGQGTQVTVSSEPKTKTTTSGR
- Adherence Score at TcdB 0.00001 ng/ml, VHH 100 ng/ml total; none: 7 [1]: 7
- Adherence Score at TcdB 0.0001 ng/ml, VHH 100 ng/ml total; none: 7 [1]: 7
- Adherence Score at TcdB 0.001 ng/ml, VHH 100 ng/ml total; none: 6 [1]: 7
- Adherence Score at TcdB 0.01 ng/ml, VHH 100 ng/ml total; none: 5 [1]: 7
- Adherence Score at TcdB 0.1 ng/ml, VHH 100 ng/ml total; none: 2 [1]: 7
- Adherence Score at TcdB 1 ng/ml, VHH 100 ng/ml total; none: 1 [1]: 7
- Adherence Score at TcdB 10 ng/ml, VHH 100 ng/ml total; none: 1 [1]: 3

B2: anti-TcdB VHH E3 (VHH)
VHH: B1 VHH E3
- Kd [2]: 0.03 nM

B3: 5D+7F+5E (other)
VHH 5D: B1 VHH 5D
VHH 7F: B1 VHH 7F
VHH 5E: VQLVESGGGLVQAGGSLRLSCAASGLMFGAMTMGWYRQAPGKEREMVAYITAGGTESYSESVKGRFTISRINANNMVYLQMTNLKVEDTAVYYCNAHNFWRTSRNWGQGTQVTVSSEPKTPKP
- Adherence Score at TcdB 0.00001 ng/ml, VHH 100 ng/ml total; none: 7 [1]: 7
- Adherence Score at TcdB 0.0001 ng/ml, VHH 100 ng/ml total; none: 7 [1]: 7
- Adherence Score at TcdB 0.001 ng/ml, VHH 100 ng/ml total; none: 6 [1]: 7
- Adherence Score at TcdB 0.01 ng/ml, VHH 100 ng/ml total; none: 5 [1]: 7
- Adherence Score at TcdB 0.1 ng/ml, VHH 100 ng/ml total; none: 2 [1]: 7
- Adherence Score at TcdB 1 ng/ml, VHH 100 ng/ml total; none: 1 [1]: 4
- Adherence Score at TcdB 10 ng/ml, VHH 100 ng/ml total; none: 1 [1]: 1

B4: 5D+E3+2D (other)
VHH 5D: B1 VHH 5D
VHH E3: B1 VHH E3
VHH 2D: QVKLQQSGGGLVQAGGSLRLSCAASGTFSRYAMGWFRQAPGKEREFVAAINWTGGSTYYADSVKGRFTISGDNAKNTVYLQMNSLKPGDTAVYYCAAEVHPGDYGLTYMQSQYEYDYWGQGTQVTVSSEPKTPKPTTSGR
- Adherence Score at TcdB 0.00001 ng/ml, VHH 100 ng/ml total; none: 7 [1]: 7
- Adherence Score at TcdB 0.0001 ng/ml, VHH 100 ng/ml total; none: 7 [1]: 7
- Adherence Score at TcdB 0.001 ng/ml, VHH 100 ng/ml total; none: 6 [1]: 7
- Adherence Score at TcdB 0.01 ng/ml, VHH 100 ng/ml total; none: 5 [1]: 7
- Adherence Score at TcdB 0.1 ng/ml, VHH 100 ng/ml total; none: 2 [1]: 7
- Adherence Score at TcdB 1 ng/ml, VHH 100 ng/ml total; none: 1 [1]: 6.1
- Adherence Score at TcdB 10 ng/ml, VHH 100 ng/ml total; none: 1 [1]: 2.1

B5: E3+7F+2D (other)
VHH E3: B1 VHH E3
VHH 7F: B1 VHH 7F
VHH 2D: B4 VHH 2D
- Adherence Score at TcdB 0.00001 ng/ml, VHH 100 ng/ml total; none: 7 [1]: 7
- Adherence Score at TcdB 0.0001 ng/ml, VHH 100 ng/ml total; none: 7 [1]: 7
- Adherence Score at TcdB 0.001 ng/ml, VHH 100 ng/ml total; none: 6 [1]: 7
- Adherence Score at TcdB 0.01 ng/ml, VHH 100 ng/ml total; none: 5 [1]: 7
- Adherence Score at TcdB 0.1 ng/ml, VHH 100 ng/ml total; none: 2 [1]: 6
- Adherence Score at TcdB 1 ng/ml, VHH 100 ng/ml total; none: 1 [1]: 4
- Adherence Score at TcdB 10 ng/ml, VHH 100 ng/ml total; none: 1 [1]: 1

B6: anti-TcdB VHH C6 (VHH)
VHH: VQLVESGGGLVQAGESLRLSCVVSESIFRINTMGWYRQTPGKQREVVARITLRNSTTYADSVKGRFTISRDDAKNTLYLKMDSLKPEDTAVYYCHRYPLIFRNSPYWGQGTQVTVSS
- Kd [2]: 0.89 nM

B7: anti-TcdB VHH 7F (VHH)
VHH: QVQLVESGGGLVEAGGSLRLSCVVTGSSFSTSTMAWYRQPPGKQREWVASFTSGGAIKYTDSVKGRFTMSRDNAKKMTYLQMENLKPEDTAVYYCALFINAVSGSSWGRGTQVTVSS
- Kd [2]: 8.8 nM

B8: Nano94-TxnA (VHH)
VHH: QVQLQESGGGLVQAGGSLRLSCAASGRMFSINSMGWYRQAPGKERELVATISEAGTTTYADSVRGRFTIARDNAKNTVYLQMNSLNPEDTAVYYCNAYIQLDSTIWFRAYWGQGTQVTVSS
notes: also called SP835
- EC50 [3]: 36.7 nM
- IC50 (read off the curve) (GI.1 VLPs): ~2 µg/mL
- EC50 [4]: 50.1 nM
- EC50 [5]: 27.3 nM

B9: Nano94-MBP (VHH)
VHH: B8 VHH
notes: also called SP836
- IC50 (read off the curve) (GI.1 VLPs): ~2 µg/mL

B10: Nano26-MBP (VHH, not shown: large carriers)
VHH: QVQLQESGGGLVQPGGSLRLSCTAPRIIFFMYDVGWYRQAPEKQRELVAQINSDVSTKYADSVKGRFTISRDNAKRTVYLQMNDLKPEDAAVYYCNVRRASADYWGQGTQVTVSS
notes: also called SP834
- EC50 [6]: 2.75 nM
- EC50 [7]: 2.29 nM
- Kd [8]: 21.9 nM
- kon [8]: 172000 M⁻¹ s⁻¹

B11: anti-TcdB VHH 5D (VHH)
VHH: QVQLVESGGGLVQPGGSLRLSCEASGFTLDYYGIGWFRQPPGKEREAVSYISASARTILYADSVKGRFTISRDNAKNAVYLQMNSLKREDTAVYYCARRRFSASSVNRWLADDYDVWGRGTQVAVSS
- Kd [9]: 0.65 nM
- Kd [2]: 0.65 nM

B12: anti-TcdB VHH B12 (VHH)
VHH: VQLVESGGGLVQAGDSLTLSCAASESTFNTFSMAWFRQAPGKEREYVAAFSRSGGTTNYADSVKGRATISTDNAKNTVYLHMNSLKPEDTAVYFCAADRPAGRAYFQSRSYNYWGQGTQVTVSS
- Kd [2]: 0.07 nM

Source: patent US20210338751A1 (LUMEN BIOSCIENCE, published 2021)
